Data reported in patent US20080299666A1, “Novel Peptide-Based Borono-Lectin (PBL) Sensors” (University of South Carolina, priority 2007, published 2008).

Tests used:
[1] = binding with fructose at pH=8; 480 nm to 450 nm; cited from earlier work
[2] = Non-specific binding and BSA blocking: FITC-BSA and FITC-Ovalbumin on PBL library, bead fluorescence; conditions: for Mean of luminosity of fluorescent beads: exposure time 832 ms; for Binding to PBL library by bead fluorescence (non-specific vs specific): exposure time 62.4 ms
Text: On the other hand, we used the PBL library to bind FITC labeled bovine serum album (BSA) to observe non-specific binding. There should not be binding between them because there are no carbohydrates on BSA. The experimental results were compared in FIG. 2.14. […] That means the amount of non-specific binding is less than specific binding. In order to see whether the blocking PBL library with BSA is useful to prevent the non-specific binding, we compared the binding samples with and without blocking with BSA. Two fluorescently labeled proteins were used: FITC-BSA and FITC-Ovalbumin. In FIG. 2.14, it is not easy to differentiate the images 2 and 3 under 62.4 ms exposure time. We increased the exposure time to 832 ms and compared quantitatively the luminosity of fluorescent beads (with red circles). The mean of luminosity for image 2 is 63.57 and 38.84 for image 3; while for image 4 and 5, they are 38.63 and 19.86 respectively. […] In one experiment (Table 2.2, row 1 and 4), we counted the rate of hits which decreased when the PBLs were blocked with BSA.

[3] = Binding of control proteins to the PBL library; conditions: fluorescently labeled protein
Procedure: To minimize non-specific binding, the resin was pre-incubated with 1% BSA. When binding glycoproteins to the library (about 10 min. to 12 hr—about 1 ng/mL to 1 mg/mL), 1% BSA and 10% glycerol were also included. The resin was washed extensively with phosphate buffered saline (PBS) after binding.

[4] = Detection limit of fluorescently-labeled glycoproteins bound to PBL library beads (fluorescence microscopy); type: binding
Procedure: To determine how low the concentration is at which we can still differentiate the fluorescence of the beads, the PBL library beads were blocked with 1% BSA and then incubated with varying concentration of FITC-labeled ovalbumin, PSM and CEA and CR-labeled ovalbumin and PSM with the addition of 10% (v/v) glycerol overnight. After washing away unbound glycoproteins, fluorescence images were obtained. The PBL library without addition of glycoprotein was used as a control sample. Here, the limit of glycoprotein detection is defined as the lowest concentration of fluorescently-labeled glycoproteins at which their binding to PBL library beads can give enough fluorescence intensity for visual observation. However, the concentration limits are also exposure time dependent, e.g., for FITC-Ovalbumin, and FITC-BSM, the lowest concentrations for visual observation of fluorescence under exposure time 252 ms are about 10 μg/ml, but if the exposure time was increased, the fluorescence can be observed even under dilute concentration. For instance, for FITC-Ovalbumin, the detection limit will lower to about 0.1 μg/ml when exposure time is increased to 4.69 s (FIGS. 2.15, 2.16 and Table 2.3). For FITC-CEA, if observed under 252 ms, the fluorescence of beads is strong. Its concentration limit is about 0.1 (μg/ml) under this exposure time (FIG. 2.17). Stronger fluorescence from FITC-CEA if under the same exposure time as others may be due to CEA having more terminal glycans compared to others.
For CR-glycoproteins, since the PBL library itself is lightly fluorescent under excitation wavelength=510-560 nm, in order to avoid high background interference, we chose comparatively lower exposure time (62.4 ms) when we took the images (FIGS. 2.18 and 2.19). Under this exposure time, the concentration limits for CR-Ovalbumin and CR-PSM were 1 μg/ml (Table 2.3). If we mention the concentration limit of screening, we mention exposure time because the concentration limit is exposure dependent.
FITC-glycoprotein or CR-glycoprotein solution was added into the borono-peptide beads and tumbled overnight at room temperature. The beads were then washed by PBS buffer (0.1M, pH=7.3 150 mM NaCl) (for CR-glycoproteins, beads were washed with methanol first and then washed with PBS buffer) and beads were observed under fluorescence microscope (Nikon, eclipse, E600) and pictures were taken.

[5] = PBL library response to FITC-tagged CEA at varying concentrations; type: binding
Text: Higher sensitivity is achieved using longer integration times on the camera to image the beads, up to 25 ms to obtain the 10 pg/mL image.

[6] = PBL library blocked with BSA (images 3 and 5)
[7] = without BSA blocking (images 2 and 4)

Molecule: CN(C)c1ccc(/C=C/c2ccc(B(O)O)cc2)cc1 [DSTBA, 4′-Dimethylaminostilbene-4-boronic acid]
- Blue shift of the emission [1]: 30 nm

Molecule: FITC-BSA: FITC labeled bovine serum albumin, not a glycoprotein [reference compound]
- Mean of luminosity of fluorescent beads [2, 6]: 38.84
- Binding to PBL library by bead fluorescence (non-specific vs specific) [2]: non-specific binding is minimal
- Mean of luminosity of fluorescent beads [2, 7]: 63.57
- Binding to the PBL library (qualitative) [3]: no appreciable binding

B1: FITC-Oval: conjugate of fluorescein isothiocyanate and chicken ovalbumin (conjugate, UniProt P01012 2-386, looked up)
Ovalbumin: GSIGAASMEFCFDVFKELKVHHANENIFYCPIAIMSALAMVYLGAKDSTRTQINKVVRFDKLPGFGDSIEAQCGTSVNVHSSLRDILNQITKPNDVYSFSLASRLYAEERYPILPEYLQCVKELYRGGLEPINFQTAADQARELINSWVESQTNGIIRNVLQPSSVDSQTAMVLVNAIVFKGLWEKAFKDEDTQAMPFRVTEQESKPVQMMYQIGLFRVASMASEKMKILELPFASGTMSMLVLLPDEVSGLEQLESIINFEKLTEWTSSNVMEERKIKVYLPRMKMEEKYNLTSVLMAMGITDVFSSSANLSGISSAESLKISQAVHAAHAEINEAGREVVGSAEAGVDAASVSEEFRADHPFLFCIKHIATNAVLFFGRCVSP
modifications: FITC label
notes: conjugate of fluorescein isothiocyanate and chicken ovalbumin
- Concentration limit (detection limit) ([4]; FITC label, exposure time 4.69 s): about 0.1 μg/ml
- Concentration limit (detection limit) ([4]; FITC label, exposure time 252 ms, beads blocked with 1% BSA, 10% (v/v) glycerol, overnight): 10 µg/mL
- Concentration limit (detection limit) ([4]; FITC label, exposure time 252 ms, beads blocked with 1% BSA, 10% (v/v) glycerol, overnight, listed as FITC-Ovalbumin): about 10 μg/ml
- Mean of luminosity of fluorescent beads [2, 6]: 19.86
- Binding to PBL library by bead fluorescence (non-specific vs specific) [2]: fluorescence can be observed clearly
- Mean of luminosity of fluorescent beads [2, 7]: 38.63

B2: CR-Oval: ovalbumin labeled with carboxyrhodamine (conjugate, UniProt P01012 2-386, looked up)
Ovalbumin: GSIGAASMEFCFDVFKELKVHHANENIFYCPIAIMSALAMVYLGAKDSTRTQINKVVRFDKLPGFGDSIEAQCGTSVNVHSSLRDILNQITKPNDVYSFSLASRLYAEERYPILPEYLQCVKELYRGGLEPINFQTAADQARELINSWVESQTNGIIRNVLQPSSVDSQTAMVLVNAIVFKGLWEKAFKDEDTQAMPFRVTEQESKPVQMMYQIGLFRVASMASEKMKILELPFASGTMSMLVLLPDEVSGLEQLESIINFEKLTEWTSSNVMEERKIKVYLPRMKMEEKYNLTSVLMAMGITDVFSSSANLSGISSAESLKISQAVHAAHAEINEAGREVVGSAEAGVDAASVSEEFRADHPFLFCIKHIATNAVLFFGRCVSP
modifications: carboxyrhodamine label
notes: ovalbumin labeled with carboxyrhodamine
- Concentration limit (detection limit) ([4]; CR label, exposure time 62.4 ms, beads blocked with 1% BSA, 10% (v/v) glycerol, overnight): 1 µg/mL

B3: FITC-CEA: Carcinoembryonic antigen labeled with FITC (conjugate, UniProt P06731 35-685, looked up)
Cell adhesion molecule CEACAM5: KLTIESTPFNVAEGKEVLLLVHNLPQHLFGYSWYKGERVDGNRQIIGYVIGTQQATPGPAYSGREIIYPNASLLIQNIIQNDTGFYTLHVIKSDLVNEEATGQFRVYPELPKPSISSNNSKPVEDKDAVAFTCEPETQDATYLWWVNNQSLPVSPRLQLSNGNRTLTLFNVTRNDTASYKCETQNPVSARRSDSVILNVLYGPDAPTISPLNTSYRSGENLNLSCHAASNPPAQYSWFVNGTFQQSTQELFIPNITVNNSGSYTCQAHNSDTGLNRTTVTTITVYAEPPKPFITSNNSNPVEDEDAVALTCEPEIQNTTYLWWVNNQSLPVSPRLQLSNDNRTLTLLSVTRNDVGPYECGIQNELSVDHSDPVILNVLYGPDDPTISPSYTYYRPGVNLSLSCHAASNPPAQYSWLIDGNIQQHTQELFISNITEKNSGLYTCQANNSASGHSRTTVKTITVSAELPKPSISSNNSKPVEDKDAVAFTCEPEAQNTTYLWWVNGQSLPVSPRLQLSNGNRTLTLFNVTRNDARAYVCGIQNSVSANRSDPVTLDVLYGPDTPIISPPDSSYLSGANLNLSCHSASNPSPQYSWRINGIPQQHTQVLFIAKITPNNNGTYACFVSNLATGRNNSIVKSITVSASGTSPGLSA
modifications: FITC label
- PBL library response (microscope image) ([5]; 10 pg/mL CEA, integration times up to 25 ms): responding
- PBL library response (microscope image) ([5]; 10 ng/mL CEA): responding
